The target in assay [1] is T1, HHLA2 (B7-H7).
T1 construct: coated protein in the ELISA; also called HHLA2-Fc (R&D Systems)
T1 chain: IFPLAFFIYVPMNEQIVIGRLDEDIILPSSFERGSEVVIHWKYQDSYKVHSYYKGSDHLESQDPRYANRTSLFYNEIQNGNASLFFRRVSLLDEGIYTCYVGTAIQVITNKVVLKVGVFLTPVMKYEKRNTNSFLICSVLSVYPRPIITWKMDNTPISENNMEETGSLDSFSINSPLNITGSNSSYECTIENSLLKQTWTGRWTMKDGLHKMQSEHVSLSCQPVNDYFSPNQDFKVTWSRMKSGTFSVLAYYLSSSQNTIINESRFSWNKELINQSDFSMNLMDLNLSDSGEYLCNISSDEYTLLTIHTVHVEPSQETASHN
Briefly: ELISA on coated HHLA2-Fc, 150 ng IgG1; None 0.087. On the procedure:
(§1) Recombinant purified ECDs (50-150 ng) of each putative target protein were coated, incubated with 150 ng of the indicated primary antibody, and binding was detected using a peroxidase-conjugated anti-human Fab secondary antibody. Heatmap represents averages of technical triplicates. (8B) Target validation via siRNA knockdown. H929 cells were transfected with siRNA pools targeting the putative antibody targets ICAM1, CADM1, and PTPRG. Cells were then subjected to cognate IgG binding analysis via flow cytometry. (NT, non-targeting siRNA).
(§2) ELISA ELISA was conducted as described previously. Briefly, 50-150 ng of antigen was coated overnight in half-area 96-well plates at 4° C., blocked with 3% BSA at 37° C. for 1 h, and 150 ng of chimeric rabbit/human IgG1 was added, incubating for 2 h at 37° C. […] After incubating at 37° C. for 15 min-1 h (depending on intensity of controls), data were acquired using a SpectraMax M5 plate reader (Molecular Devices).
(An ELISA detects its analyte on a solid surface through an enzyme-linked reagent.)

A further assay addresses T2, ANXA1.
T2 construct: coated protein in the ELISA; also called ANXA1-His (R&D Systems)
T2 chain: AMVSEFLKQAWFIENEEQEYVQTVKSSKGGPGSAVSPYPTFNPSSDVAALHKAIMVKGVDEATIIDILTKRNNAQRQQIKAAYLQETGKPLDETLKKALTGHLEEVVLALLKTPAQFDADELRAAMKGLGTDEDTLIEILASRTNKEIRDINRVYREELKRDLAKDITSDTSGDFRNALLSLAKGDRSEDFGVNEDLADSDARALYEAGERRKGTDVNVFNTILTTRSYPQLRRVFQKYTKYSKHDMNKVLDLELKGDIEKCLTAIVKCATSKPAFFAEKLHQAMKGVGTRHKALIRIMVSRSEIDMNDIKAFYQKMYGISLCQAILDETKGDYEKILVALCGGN
Briefly: ELISA on coated ANXA1-His. On the procedure: as §1, §2

Assay [2] addresses T3, PTPRG-Fc (ECD of human PTPRG, aa 20-736, fused to human Fc gamma 1) (human, UniProt P23470 20-736).
T3 construct: Made in-house in Expi293 cells; Used in ELISA and SPR; also called recombinant PTPRG-Fc; PTRPG; not shown: human IgG1 Fc (Fc gamma 1) after the hinge
T3 sequence: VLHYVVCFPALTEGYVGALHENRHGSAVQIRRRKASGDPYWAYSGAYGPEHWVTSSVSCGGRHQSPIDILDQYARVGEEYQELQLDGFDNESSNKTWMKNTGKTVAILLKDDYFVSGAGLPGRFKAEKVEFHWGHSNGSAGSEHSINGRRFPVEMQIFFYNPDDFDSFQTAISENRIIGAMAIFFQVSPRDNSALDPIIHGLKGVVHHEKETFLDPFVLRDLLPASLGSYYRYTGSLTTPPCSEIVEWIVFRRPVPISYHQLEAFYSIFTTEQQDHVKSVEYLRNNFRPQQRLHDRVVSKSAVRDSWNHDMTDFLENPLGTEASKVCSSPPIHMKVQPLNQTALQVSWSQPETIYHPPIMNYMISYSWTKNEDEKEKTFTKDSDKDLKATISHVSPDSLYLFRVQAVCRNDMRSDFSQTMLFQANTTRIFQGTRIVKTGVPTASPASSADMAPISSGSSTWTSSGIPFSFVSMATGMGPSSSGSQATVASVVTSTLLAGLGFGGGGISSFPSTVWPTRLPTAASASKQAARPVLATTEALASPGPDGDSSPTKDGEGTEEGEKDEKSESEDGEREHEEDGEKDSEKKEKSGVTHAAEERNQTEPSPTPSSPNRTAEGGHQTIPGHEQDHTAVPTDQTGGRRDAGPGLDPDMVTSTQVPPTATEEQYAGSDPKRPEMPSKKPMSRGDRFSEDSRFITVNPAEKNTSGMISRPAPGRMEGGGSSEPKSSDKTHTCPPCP
As to the kind of experiment: ELISA on coated PTPRG-Fc, 150 ng IgG1; None 0.117. The protocol:
as §1, §2

The target in the next assay is T4, SLAMF7.
T4 construct: coated protein in the ELISA; also called SLAMF7-StrepTag
T4 chain: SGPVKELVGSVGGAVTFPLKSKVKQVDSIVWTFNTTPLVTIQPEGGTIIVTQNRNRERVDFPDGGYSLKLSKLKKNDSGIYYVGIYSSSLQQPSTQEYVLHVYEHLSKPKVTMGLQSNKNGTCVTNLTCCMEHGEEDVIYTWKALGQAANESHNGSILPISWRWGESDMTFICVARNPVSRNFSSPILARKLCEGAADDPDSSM
Briefly: ELISA on coated SLAMF7-StrepTag, 150 ng IgG1; None 0.047. On the procedure: as §1, §2

A further assay has as its target T5, PTP4A3 (PRL-3).
T5 construct: coated protein in the ELISA; also called His-PTP4A3 (R&D Systems)
Briefly: ELISA on coated His-PTP4A3, 150 ng IgG1; None 0.085. The protocol:
as §1, §2

Assay [3] concerns the target T1, HHLA2 (B7-H7). Briefly: ELISA on coated HHLA2-Fc. The protocol:
as §1, §2

For assay [4], the target named is T6, CADM1-His (Acro Biosystems) (human, UniProt Q9BY67 45-374).
T6 construct: Bought; also called CADM1/IGSF4A; not shown: His tag of the bought protein
T6 sequence: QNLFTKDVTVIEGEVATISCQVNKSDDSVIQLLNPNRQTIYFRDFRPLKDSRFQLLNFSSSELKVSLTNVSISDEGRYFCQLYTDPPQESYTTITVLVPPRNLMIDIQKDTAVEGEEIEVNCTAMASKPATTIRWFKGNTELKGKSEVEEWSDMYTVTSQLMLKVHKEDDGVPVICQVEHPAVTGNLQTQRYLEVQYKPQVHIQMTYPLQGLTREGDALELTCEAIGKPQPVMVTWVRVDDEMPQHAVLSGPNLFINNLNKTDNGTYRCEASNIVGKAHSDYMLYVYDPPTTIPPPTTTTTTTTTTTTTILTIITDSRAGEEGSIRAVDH
As to the kind of experiment: ELISA on coated CADM1-His, 150 ng IgG1; None 0.059. On the procedure:
as §1, §2

T5 sequence (chain, as listed by the source limits assumed): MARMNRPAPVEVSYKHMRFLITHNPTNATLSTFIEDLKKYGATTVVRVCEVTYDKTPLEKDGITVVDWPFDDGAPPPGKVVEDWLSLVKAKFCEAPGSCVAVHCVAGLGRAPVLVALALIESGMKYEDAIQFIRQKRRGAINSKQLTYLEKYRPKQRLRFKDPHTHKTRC

B1: HW-113 chimeric rabbit-human IgG1 LA/LA/PG (antibody, V domains shown)
VH: QKQLVESGGGLVQPGGSLTLTCTVSGFSLNKYYMGWFRQAPGKGLEWIGVISRSGDTYYSSWAKGRFTISKASTTVDLRITSPTTEDTATYFCARDASSPGFHGDRLDLWGQGTLVTVSS
VL: SFVLTQPASVQVNLGQTVSLTCTADTLSRSYASWYQQKPGQAPVLLIYRDTSRPSGVPDRFSGSSSGNTATLTISGAQAGDEADYYCATSDGIGSNYLWVFGGGTQLTVTG
notes: Fc-silenced (L234A/L235A/P329G) IgG1, lambda; Alexa Fluor 647-labeled in single-step flow cytometry
For the molecule B1, the “ELISA Absorbance (405 nm-570 nm)” value in the assay with HHLA2 (B7-H7) [1] was determined as 0.071; in assay [2] it was 0.071; with SLAMF7, 0.048; in the assay with PTP4A3 (PRL-3) it was 0.078; in assay [4], 0.058. In addition, the binding result in the assay with ANXA1 and with HHLA2 (B7-H7) [3] was “no binding (tested: 150 ng IgG1 per well)” in each case.

(Values after patent US20260049134A1 (UNIVERSITY OF FLORIDA RESEARCH FOUNDATION, published 2026).)
